Results published in patent publication US20110293610A1 (published 2011).

T1: TNF-beta (human, UniProt P01374 35-205)
T1 construct: also called TNFβ; Tumour Necrosis Factor-beta
T1 sequence (looked up): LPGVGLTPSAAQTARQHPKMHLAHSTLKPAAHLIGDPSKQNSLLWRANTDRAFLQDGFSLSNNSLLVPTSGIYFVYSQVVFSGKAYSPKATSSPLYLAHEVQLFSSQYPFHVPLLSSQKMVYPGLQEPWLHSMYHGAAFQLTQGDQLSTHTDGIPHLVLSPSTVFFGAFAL

T2: Fas ligand (human, UniProt P48023 134-281, limits assumed)
T2 sequence (looked up): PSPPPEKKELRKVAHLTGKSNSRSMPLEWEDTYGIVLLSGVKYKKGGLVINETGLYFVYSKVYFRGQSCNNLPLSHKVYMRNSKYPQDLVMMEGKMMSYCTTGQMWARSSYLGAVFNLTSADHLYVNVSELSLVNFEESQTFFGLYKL


What was measured:
[1] = molecular target: T3, membrane-bound B Lymphocyte Stimulator on U937 plasma membrane preparations (human, UniProt Q9Y275 1-285); assay: phage ELISA
T3 construct: Natural protein in plasma membrane fractions of the human cell line U937 coated on ELISA plates; also called U937 plasma membranes; U937 membranes

[2] = molecular target: T4, TNF-alpha (human, UniProt P01375 77-233); assay: phage ELISA
T4 construct: also called TNFα; TNF-α
T4 sequence (P01375 77-233 limits assumed): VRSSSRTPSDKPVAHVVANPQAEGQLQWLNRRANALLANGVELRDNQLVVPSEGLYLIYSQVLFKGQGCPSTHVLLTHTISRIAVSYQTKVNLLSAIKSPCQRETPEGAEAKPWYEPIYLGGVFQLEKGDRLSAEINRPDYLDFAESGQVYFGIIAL

[3] = molecular target: T1, TNF-beta; assay: phage ELISA
[4] = molecular target: T2, Fas ligand; assay: phage ELISA
[5] = molecular target: T5, TRAIL (human, UniProt P50591 114-281); assay: phage ELISA
T5 construct: also called TNF-related apoptosis inducing ligand
T5 sequence (P50591 114-281 limits assumed): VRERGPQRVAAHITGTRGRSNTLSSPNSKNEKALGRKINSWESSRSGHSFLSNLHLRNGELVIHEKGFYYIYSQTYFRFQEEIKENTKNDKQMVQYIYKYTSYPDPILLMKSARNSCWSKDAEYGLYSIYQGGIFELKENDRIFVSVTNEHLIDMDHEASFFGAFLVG

[6] = molecular target: T6, B Lymphocyte Stimulator, soluble form (human) (human, UniProt Q9Y275 134-285, biotinylated with NHS-biotin where used as biotinylated B Lymphocyte Stimulator); assay: phage competition ELISA
T6 construct: Coated on plastic, captured on streptavidin plates, amine-coupled to a CM5 chip or free in solution, depending on the assay; also called BLyS; immobilized B Lymphocyte Stimulator

Row | Binder | binding result [1] | binding result [2] | binding result [3] | binding result [4] | binding result [5] | binding result [6]
1 | I022E02 (scFv) scFv: QVQLVQSGAEVKKPGASVMVSCKASGYTFSTYAVHWVRQAPGQGLEWMGRINAGNGYTKYSQKFQGRVTITKDTSASAAYMELSSLGSEDTALYYCARATYDPLTGYSFDGLDIWGKGTMVTVSSGGGGSGGGGSGGGGSQSVLTQPASVSGSPGQSITISCTGTSSDVGGYNYVSWYQQHPGKAPKLMIYEGSKRPSGVSNRFSGSKSGNTASLTISGLQAEDEADYYCSSYTTRSTRVFGGGTKLTVLG | binds | no binding | no binding | no binding | no binding | binds
2 | I008C02 (scFv) scFv: AVQLQESGPGLVKPSETLSLTCSVSGASMTTNKFYWSWIRQPPGKGLEWIGNINYSKSTNYNPSLKSRITISVDTSKNQLSLKLNSVTAADTAVYYCARHVRDYDILTGYYRGHYFDYWGQGTMVTVSSGGGGSGGGGSGGGGSQSVLTQPASVSGSPGQSITISCTGTSSDVGGYNYVSWYQQHPGKAPKLMIYEGSKRPSGVSNRFSGSKSGNTASLTISGLQAEDEADYYCSSYTTRSTRVFGGGTKLTVLG | binds | no binding | no binding | no binding | no binding | binds
3 | I003F12S (scFv) scFv: QVQLLQSAAELKKPGQSLKISCKGSGFTFTTYWIGWVRQLPGKGLEWMGIIYPGDSHTTYSPSFEGHVNISVDKSINTAYLQWSSLKASDTAMYYCARHDDDVLTGYYFESWGQGTMVTVSSGGGGSGGGGSGGGGSQSVLTQPASVSGSPGQSITISCTGTSSDVGGYNYVSWYQQHPGKAPKLMIYEGSKRPSGVSNRFSGSKSGNTASLTISGLQAEDEADYYCSSYTTRSTRVFGGGTKLTVLG | – | no binding | no binding | no binding | no binding | –
4 | I001C09 (scFv) scFv: GVQLVQSGPEVKKPGASVKVSCTASGYTFTSYGVSWVRQAPGQGLEWIGWISAHNGQTKYAEKFQGRVTMTRNTSISTAYMELSSLRSEDTAVYYCARDGSYDILTGYYIDNYMDVWGKGTMVTVSSGGGGSGGGGSGGGGSSELTQDPAVSVALGQTVRITCQGDSLRSYYTNWFQQKPGQAPLLVVYAKNKRPSGIPDRFSGSSSGNTASLTITGAQAEDEADYYCHSRDSSGNHVLFGGGTKLTVLG | binds | – | no binding | no binding | no binding | binds
5 | I006D07 (scFv) scFv: EVQLVESGGGVVQPGGSLRLSCAASGFTVNSYAMHWVRQAPGKGLQWVAVIPYDGSKKYYADSVKGRFTVSRDNSKNTLYLQMNSLRAEDTAVYYCARSHYDILTGLNYWYFDLWGRGTLVTVSSGGGGSGGGGSGGGGSSELTQDPAVSVALGQTVRITCQGDSLRSYYASWYQQKPGQAPVLVIYGKNNRPSGIPDRFSGSSSGNTASLTITGAQAEDEADYYCNSRGSSGNHVVFGGGTKLTVLG | binds | no binding | no binding | no binding | no binding | binds
6 | I008B01 (scFv) scFv: QVQLVQSGAEVMKPGASVKVSCKASGYNFNNYAMQWVRQAPGQRLEWMGWIVPGNGKTKYSQKFQDRVTIARDTSASTVYMELSSLTSEDTAMYYCARATYDPLTGYSFDGFDIWGQGTTVTVSSGGGGSGGGGSGGGGSQSVLTQPASVSGSPGQSITISCTGTSSDVGGYNYVSWYQQHPGKAPKLMIYEGSKRPSGVSNRFSGSKSGNTASLTISGLQAEDEADYYCSSYTTRSTRVFGGGTKLTVLG | binds | no binding | no binding | no binding | no binding | binds
7 | I016E05 (scFv) scFv: QVQLQQSGAEVKKPGASVKVSCKASGYTFTKYTMHWVRQAPGQGPEWMGWINGGSGDTKYSRKFQGRVTITKDTSASAAYMELSSLGSEDTALYYCARATYDPLTGYSFDGFDIWGKGTMVTVSSGGGGSGGGGSGGGGSQSALTQPASVSGSPGQSITISCTGTSSDVGGYNYVSWYQQHPGKAPKLMIYEGSKRPSGVSNRFSGSKSGNTASLTISGLQAEDEADYYCSSYTTRSTRVFGGGTKLTVLG | binds | no binding | no binding | no binding | no binding | binds
8 | I018H08 (scFv, also called 1018H08) scFv: QVQLQQSGAEVKKPGASVNVSCKASGYTFTKYTMHWVRQAPGQGPEWMGWINGGSGDTKYSRKFQGRVTITKDTSASAAYMELSSLGSEDTALYYCARATYDPLTGYSFDGFDIWGQGTMVTVSSGGGGSGGGGSGGGGSQSVLTQPASVSGSPGQSITISCTGTSSDVGGYNYVSWYQQHPGKAPKLMIYEGSKRPSGVSNRFSGSKSGNTASLTISGLQAEDEADYYCSSYTTRSTRVFGGGTKLTILG | binds | no binding | no binding | no binding | no binding | binds
9 | I018H09 (scFv) scFv: QVQLQQSGAEVKKPGASVKVSCKASGYTFTKYTMHWVRQAPGQGPEWMGWINGGSGDTKYSRKFQGRVTITKDTSASATYMELSSLGSEDTALYYCARATYDPLTGYSFDGFDIWGKGTMVTVSSGGGGSGGGGSGGGGSQSVLTQPASVSGSPGQSITISCTGTSSDVGGYNYVSWYQQHPGKAPKLMIYEGSKRPSGVSNRFSGSKSGNTASLTISGLQAEDEADYYCSSYTTRSTRVFGGGTKLTVLG | binds | no binding | no binding | no binding | no binding | binds

The next lines start with the values.

Row | binding result [1] | binding result [2] | binding result [3] | binding result [4] | binding result [5] | binding result [6] | Binder
10 | binds | no binding | no binding | no binding | no binding | binds | I018C02 (scFv) scFv: QVQLQQSGSELKKPGASVIVSCKVSGYSLTKMSMHWVRQSPGEGLEWVGGIDPETRQPVYAQKFQGRVTITKDTSASAAYMELSSLGSEDTALYYCARATYDPLTGYSFDGFDIWGQGTLVTVSSGGGGSGGGGSGGGGSQSVLTQPASVSGSPGQSITISCTGTSSDVGGYNYVSWYQQHPGKAPKLMIYEGSKRPSGVSNRFSGSKSGNTASLTISGLQAEDEADYYCSSYTTRSTRVFGGGTKLTVLG
11 | binds | – | no binding | no binding | no binding | binds | I018D07 (scFv) scFv: GVQLVQSGPEVKKPGASVIVSCTASGYTFTSYGVSWVRQAPGQGLEWIGWISAHNGQTKYAEKFQGRVTMTRNTSISTAYMELSSLRSEDTAVYYCARDGSYDILTGYYIDNYMDVWGKGTMVTVSSGGGGSGGGGSGGGGSSELTQDPAVSVALGQTVRITCQGDSLRSYYTNWFQQKPGQAPLLVVYAKNKRPSGIPDRFSGSSSGNTASLTITGAQAEDEADYYCHSRDSSGNHVLFGGGTKLTVLG
12 | binds | no binding | no binding | no binding | no binding | binds | I061E07 (scFv) scFv: QVQLQQSGAEVKKTGASVKVSCKASGYIFADYYVHWVRQAAGQGLEWMGWINPNTGSTKYAQKFQDRVTMTRDTSIKTVYMELRRLRSDDTALYYCARATYDPLTGYSFDGFDIWGKGTMVTVSSGGGGSGGGGSGGGGSQSVLTQPPSASGTPGQRVTISCSGSSSNIGSNTVNWYQRLPGAAPQLLIYNNDQRPSGIPDRFSGSKSGTSGSLVISGLQSEDEADYYCASWDDSLNGRVFGGGTKLTVLG
13 | binds | no binding | no binding | no binding | no binding | binds | I029D07 (scFv) scFv: QVQLQQSGAEVKKPGSSVKVSCKASGYTFTKYTMHWVRQAPGQGPEWMGWINGGSGDTKYSRKFQGRVTITKDTSASAAYMELSSLGSEDTALYYCARATYDPLTGYSFDGFDIWGQGTLVTVSSGGGGSGGGGSGGGGSQSVLTQPASVSGSPGQSITISCTGTSSDVGGYNYVSWYQQHPGKAPKLMIYDVSKRPSGVPDRFSGSKSGNTASLTISGLQAEDEGDYYCSSYAGPSRVFGGGTKVEIKR
